The term pKd denotes the Kd on a negative log10 scale, so that one unit is a factor of ten.

pKd: −log10 of the molar value.

In this data set the test system is GST-CELF1 (recombinant human CELF1) (Homo sapiens). The experiment in a line: EMSA. Particulars: 3 fmol RNA with increasing GST-hCELF1, 5% native polyacrylamide gel; buffer, salt, pH and temperature not given (cited ref 31).
Regarding 7SL RNA fragment (negative control), the pKd was under 6.52.
With Srp9 3'UTR fragment the figure was 9.08; with Srp14 3'UTR fragment, 7.91.
On to Srp19 3'UTR fragment, for which the pKd was 7.47.
With Srp54 3'UTR fragment the figure was 7.87; with Srp68 3'UTR fragment, 8.79.
Turning to Srp72 3'UTR fragment, the negative logarithm of the Kd (pKd) is 9.28.

These data come from article PMC5271678.
